Experimental data from patent US20260042834A1 (HBM ALPHA THERAPEUTICS, published 2026).
“And” between values parts separate entries of the source, which are not always exact repeats. Equal entries are not always repeated. Where two headings read alike, the source gives them in different places. One block for each binder: values may come before it.

Assays:
biotinylated CRH [1] = target: T1, biotinylated CRH (human and mouse, not fully specified; biotinylated, position not stated); assay: Octet in-tandem, row = 1st mAb; competitor (2nd mAb) PR302334
T1 construct: also called Biotin-CRH; biotin-labeled CRH
T1 peptide: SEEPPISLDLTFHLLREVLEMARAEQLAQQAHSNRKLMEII
Method: (§1) SA sensors (Fortebio, Cat #18-5019) were hydrated in running buffer for 10 mins.

biotinylated CRH [2] = target: T1, biotinylated CRH; assay: Octet in-tandem, row = 1st mAb; competitor (2nd mAb) PR303394
Method: as §1

biotinylated CRH [3] = target: T1, biotinylated CRH; assay: Octet BLI, biotinylated CRH on SA sensor
biotinylated CRH [4] = target: T1, biotinylated CRH; assay: Octet in-tandem, row = 1st mAb; competitor (2nd mAb) PR005660
Method: as §1

biotinylated CRH [5] = target: T1, biotinylated CRH; assay: Octet in-tandem, row = 1st mAb; competitor (2nd mAb) PR006669
Method: as §1

biotinylated CRH [6] = target: T1, biotinylated CRH; assay: Octet in-tandem, row = 1st mAb; competitor (2nd mAb) PR302341-34
Method: as §1

biotinylated CRH [7] = target: T1, biotinylated CRH; assay: Octet in-tandem, row = 1st mAb; competitor (2nd mAb) PR301777
Method: as §1

biotinylated CRH [8] = target: T1, biotinylated CRH; assay: Octet in-tandem, row = 1st mAb; competitor (2nd mAb) PR302309-8
Method: as §1

human UCN2 peptide = target: T2, human UCN2 peptide (human, UniProt Q96RP3 72-109, limits assumed, not fully specified; biotin at N- or C-terminus in the ELISA); assay: ELISA, biotinylated hUCN2 on streptavidin plates
T2 construct: also called hUCN2; hUCN2 (NT Biotin)
T2 peptide (looked up): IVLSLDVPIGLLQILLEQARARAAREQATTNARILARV
Method: (§2) Streptavidin (Thermo, Cat: 21125) was diluted in PBS with a concentration of 2 μg/mL. 100 μL of diluted streptavidin was added per well to ELISA microplates, and the plates were incubated overnight at 4° C. Plates were blocked with ELISA blocking solution (containing 2% w/v BSA, 0.05% (v/v) Tween-20, pH 7.4 PBS buffer) at 37° C. for 1 hour, and then incubated with either 1 μg/mL hUCN1 (NT Biotin), hUCN1 (CT Biotin), hUCN2 (NT Biotin), hUCN2 (CT Biotin), hUCN3 (NT Biotin), or hUCN3 (CT Biotin) for 1 hour at 37° C. […] 100 μl of TMB Substrate (Biopanda, Cat: TMB-S-003) was added, and the plates were incubated at room temperature for 15 minutes. 100 μL of ELISA stopping solution (Solarbio, Cat #: C1058) was then added to terminate the reaction, and the OD450 nm was determined by an ELISA plate reader (Molecular Devices, Spectra max 384 plus).

human UCN1 peptide = target: T3, human UCN1 peptide (human, UniProt P55089 83-122, not fully specified; biotin at N- or C-terminus in the ELISA); assay: ELISA, biotinylated hUCN1 on streptavidin plates
T3 construct: also called hUCN1; hUCN1 (NT Biotin)
T3 peptide (looked up): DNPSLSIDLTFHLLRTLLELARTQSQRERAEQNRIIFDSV

human UCN3 peptide = target: T4, human UCN3 peptide (human, UniProt Q969E3 120-157, not fully specified; biotin at N- or C-terminus in the ELISA); assay: ELISA, biotinylated hUCN3 on streptavidin plates
T4 construct: also called hUCN3; hUCN3 (NT Biotin)
T4 peptide (looked up): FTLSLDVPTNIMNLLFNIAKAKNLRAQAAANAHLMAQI
Method: as §2

CRH (NT-Biotin) [9] = target: T5, CRH (NT-Biotin) (human and mouse (same sequence), not fully specified; biotin at the N-terminus); assay: ELISA, biotinylated CRH on streptavidin plate
T5 peptide: T1 peptide
Method: (§3) Streptavidin (Thermo, Cat: 21125) was diluted in PBS to a concentration of 2 μg/ml. 100 μl of diluted streptavidin was added per well to ELISA microplates, and the plates were incubated overnight at 4° C. […] 100 μL of 3,3′,5,5′-tetramethylbenzidine (TMB) substrate (Biopanda, Cat: TMB-S-003) was added, and the plates were incubated at room temperature for 15 minutes. 100 μL of ELISA stopping solution (Solarbio, Cat #: C1058) was added to terminate the reaction, and the optical density at 450 nm (OD450 nm) was determined by an ELISA plate reader (Molecular Devices, Spectra max 384 plus).

CRH (CT-Biotin) [10] = target: T6, CRH (CT-Biotin) (human and mouse (same sequence), biotin on an added C-terminal K (CRH-K-Biotin)); assay: ELISA, biotinylated CRH on streptavidin plate
T6 construct: also called Peptide 4 (CRH-Biotin)
T6 peptide: T1 peptide
Method: as §3

CRH (NT-Biotin) [11] = target: T5, CRH (NT-Biotin); assay: ELISA, biotinylated CRH on streptavidin plate
Method: as §3

CRH (CT-Biotin) [12] = target: T6, CRH (CT-Biotin); assay: ELISA, biotinylated CRH on streptavidin plate
Method: as §3

[13] = target: T7, corticotropin-releasing hormone (CRH) peptide (human and mouse (same sequence), not fully specified); assay: cell-based or functional assay
T7 peptide: T1 peptide

CRH (NT-Biotin) [14] = target: T5, CRH (NT-Biotin); assay: ELISA, biotinylated CRH on streptavidin plate
Method: as §3

CRH (CT-Biotin) [15] = target: T6, CRH (CT-Biotin); assay: ELISA, biotinylated CRH on streptavidin plate
Method: as §3

CRH (NT-Biotin) [16] = target: T5, CRH (NT-Biotin); assay: ELISA, biotinylated CRH on streptavidin plate
Method: as §3

CRH (CT-Biotin) [17] = target: T6, CRH (CT-Biotin); assay: ELISA, biotinylated CRH on streptavidin plate
Method: as §3

CRH (NT-Biotin) [18] = target: T5, CRH (NT-Biotin); assay: ELISA, biotinylated CRH on streptavidin plate
Method: as §3

CRH (CT-Biotin) [19] = target: T6, CRH (CT-Biotin); assay: ELISA, biotinylated CRH on streptavidin plate
Method: as §3

[20] = target: T7, corticotropin-releasing hormone (CRH) …; assay: cell-based or functional assay
[21] = target: T7, corticotropin-releasing hormone (CRH) …; assay: cell-based or functional assay
CRH (NT-Biotin) [22] = target: T5, CRH (NT-Biotin); assay: ELISA, biotinylated CRH on streptavidin plate
Method: as §3

CRH (CT-Biotin) [23] = target: T6, CRH (CT-Biotin); assay: ELISA, biotinylated CRH on streptavidin plate
Method: as §3

[24] = target: T7, corticotropin-releasing hormone (CRH) …; assay: cell-based or functional assay
[25] = target: T7, corticotropin-releasing hormone (CRH) …; assay: cell-based or functional assay
[26] = target: T7, corticotropin-releasing hormone (CRH) …; assay: cell-based or functional assay

% Inhibition (biotinylated CRH [1]): 95% | % Inhibition (biotinylated CRH [2]): 89% | Kd (biotinylated CRH [3]): < 0.001 nM | koff (biotinylated CRH [3]): < 1e-07 s⁻¹ | kon (biotinylated CRH [3]): 669000 M⁻¹ s⁻¹ | % Inhibition (biotinylated CRH [4]): 92% | % Inhibition (biotinylated CRH [5]): 93% | % Inhibition (biotinylated CRH [6]): 88% | % Inhibition (biotinylated CRH [7]): 90% | % Inhibition (biotinylated CRH [8]): 91%
B1: PR302334 (antibody, human IgG1, kappa, V domains shown)
VH: EVKLVESGGGLVKPGGSLKLSCAASGFTFSTYAMSWVRQTPEKRLEWVASIRSGGTTYYPDSVKGRFTISRDNARNILYLQMSSLRSEDTAIYYCTRGIDWGQGTLVTVSA
VL: NIVMTQTPKFLLVSAGDRITITCKASQSVNNDVAWYQQKPGQSPKLLIYYASNRYTGVPDRFTGSGYGTDFTFTISTVQAEDLAVYFCQQDYSSWTFGGGTNLEIKR
notes: Series 9; mouse variable domains with human IgG1 wildtype Fc

binding result (human UCN2 peptide): no binding (tested: 100 nM) | binding result (human UCN1 peptide): no binding (tested: 100 nM) | binding result (human UCN3 peptide): no binding (tested: 100 nM)
B2: PR302334-26 (antibody, human IgG1, kappa, V domains shown)
VH: EVQLVESGGGLVQPGGSLRLSCAASGFTFSTYAMSWVRQAPGKGLEWVASIRSGGTTYYPDSVKGRFTISRDNSKNSLYLQMNSLRAEDTAVYYCTRGIDWGQGTTVTVSS
VL: DIVMTQSPDSLAVSLGERATINCKASQSVNNDVAWYQQKPGQPPRLLIYYASNRYTGVPDRFSGSGSGTDFTLTISSLQAEDLAVYFCQQDYSSWTFGGGTKVEIKR
notes: Humanized variant of PR302334

EC50 (CRH (NT-Biotin) [9]): 0.039 nM | EC50 (CRH (CT-Biotin) [10]): 0.07 nM | EC50 (CRH (NT-Biotin) [11]): 0.039 nM | EC50 (CRH (CT-Biotin) [12]): 0.07 nM | mCrhr1 Luciferase Reporter Assay IC50 [13]: 5.24 nM | EC50 (CRH (NT-Biotin) [14]): 0.039 nM | EC50 (CRH (CT-Biotin) [15]): 0.07 nM | EC50 (CRH (NT-Biotin) [16]): 0.039 nM | EC50 (CRH (CT-Biotin) [17]): 0.07 nM | EC50 (CRH (NT-Biotin) [18]): 0.029 nM | EC50 (CRH (CT-Biotin) [19]): 0.032 nM | hCRHR1 Luciferase Reporter Assay IC50 [20]: 1.83 nM | mCrhr1 Luciferase Reporter Assay IC50 [20]: 5.24 nM | hCRHR1 Luciferase Reporter Assay IC50 [21]: 3.69 nM | mCrhr1 Luciferase Reporter Assay IC50 [21]: 13 nM | EC50 (CRH (NT-Biotin) [22]): 0.029 nM | EC50 (CRH (CT-Biotin) [23]): 0.064 nM and 0.032 nM | hCRHR1 Luciferase Reporter Assay IC50 [24]: 5.41 nM | mCrhr1 Luciferase Reporter Assay IC50 [24]: 18.5 nM | hCRHR1 Luciferase Reporter Assay IC50 [25]: 1.83 nM | mCrhr1 Luciferase Reporter Assay IC50 [25]: 5.24 nM | hCRHR1 Luciferase Reporter Assay IC50 [26]: 3.69 nM and 4.87 nM | mCrhr1 Luciferase Reporter Assay IC50 [26]: 17 nM and 7.78 nM
B3: PR004290 (antibody, human IgG1, kappa, V domains shown)
VH: EVQLVESGGVLVQPGGSLRLSCAASGFTFSSYWMTWVRQAPGKGLEWVANIKQDGSEKYYVDSVKGRFTISRDNAKNSLFLQMNSLRAEDTAVYYCARTLIFDYWGQGTLVTVSS
VL: DIVMTQSPLSLPVTPGEPASISCRSSQSLLHSTGYNSLEWYLQKPGQSPQLLIYLGSNRASGVPDRFSGSGSGTDFTLKISRVEAEDVGIYYCMQTLQTPITFGQGTRLEIKR
notes: Series 1; human IgG1 wildtype Fc; also called Hybridoma Clone 28b3
